Experimental findings from publication PMC4837482, “The complex binding mode of the peptide hormone H2 relaxin to its receptor RXFP1” (Nature Communications, 2016) are described below.

Common to all, as to assay: cAMP activity assay (pCRE β-galactosidase reporter), transfected HEK293T cells
Holding throughout (assay type): cell-based

One test has as its target T1, RXFP1 (Homo sapiens, UniProt Q9HBX9).
T1 construct: transiently transfected human embryonic kidney (HEK) 293T cells expressing full-length RXFP1 and mutants; expressed in transfected cells; host or cells: HEK293T
T1 sequence (Q9HBX9 1-757): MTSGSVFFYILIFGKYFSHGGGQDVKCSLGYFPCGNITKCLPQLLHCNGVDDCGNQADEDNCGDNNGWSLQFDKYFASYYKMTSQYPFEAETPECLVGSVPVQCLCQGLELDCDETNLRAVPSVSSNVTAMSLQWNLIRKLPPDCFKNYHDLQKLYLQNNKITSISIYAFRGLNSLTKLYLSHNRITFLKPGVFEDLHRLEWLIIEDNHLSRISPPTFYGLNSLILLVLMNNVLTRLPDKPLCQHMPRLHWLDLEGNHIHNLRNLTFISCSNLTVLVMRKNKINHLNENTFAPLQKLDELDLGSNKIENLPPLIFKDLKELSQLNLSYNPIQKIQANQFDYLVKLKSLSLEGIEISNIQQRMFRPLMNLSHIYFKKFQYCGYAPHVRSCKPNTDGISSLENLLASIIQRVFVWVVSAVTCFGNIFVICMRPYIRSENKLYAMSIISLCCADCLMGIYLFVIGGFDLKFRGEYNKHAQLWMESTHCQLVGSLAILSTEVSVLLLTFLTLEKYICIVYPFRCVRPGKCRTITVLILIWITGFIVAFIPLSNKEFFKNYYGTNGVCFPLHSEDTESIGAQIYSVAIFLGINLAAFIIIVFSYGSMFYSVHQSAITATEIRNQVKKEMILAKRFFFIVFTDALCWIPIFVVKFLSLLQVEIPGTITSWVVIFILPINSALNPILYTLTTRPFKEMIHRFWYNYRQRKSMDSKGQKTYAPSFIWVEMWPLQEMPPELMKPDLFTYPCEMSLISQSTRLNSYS
The settings on record: construct RXFP1 (wild type), ±s.e.m. The method in brief: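 Relaxin-stimulated cells go through overnight storage at −80 °C, two 10-min lysis steps at pH 8.0 with shaking, and chlorophenol red-β-D-galactopyranoside development. Output at 570 nm is scaled against the 5 μM Forskolin maximum.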

The target of the next test is T2, RXFP1 G41A (Homo sapiens, UniProt Q9HBX9, G63A).
T2 construct: transiently transfected human embryonic kidney (HEK) 293T cells expressing full-length RXFP1 and mutants; expressed in transfected cells; host or cells: HEK293T
T2 sequence (Q9HBX9 23-757 G63A limits assumed): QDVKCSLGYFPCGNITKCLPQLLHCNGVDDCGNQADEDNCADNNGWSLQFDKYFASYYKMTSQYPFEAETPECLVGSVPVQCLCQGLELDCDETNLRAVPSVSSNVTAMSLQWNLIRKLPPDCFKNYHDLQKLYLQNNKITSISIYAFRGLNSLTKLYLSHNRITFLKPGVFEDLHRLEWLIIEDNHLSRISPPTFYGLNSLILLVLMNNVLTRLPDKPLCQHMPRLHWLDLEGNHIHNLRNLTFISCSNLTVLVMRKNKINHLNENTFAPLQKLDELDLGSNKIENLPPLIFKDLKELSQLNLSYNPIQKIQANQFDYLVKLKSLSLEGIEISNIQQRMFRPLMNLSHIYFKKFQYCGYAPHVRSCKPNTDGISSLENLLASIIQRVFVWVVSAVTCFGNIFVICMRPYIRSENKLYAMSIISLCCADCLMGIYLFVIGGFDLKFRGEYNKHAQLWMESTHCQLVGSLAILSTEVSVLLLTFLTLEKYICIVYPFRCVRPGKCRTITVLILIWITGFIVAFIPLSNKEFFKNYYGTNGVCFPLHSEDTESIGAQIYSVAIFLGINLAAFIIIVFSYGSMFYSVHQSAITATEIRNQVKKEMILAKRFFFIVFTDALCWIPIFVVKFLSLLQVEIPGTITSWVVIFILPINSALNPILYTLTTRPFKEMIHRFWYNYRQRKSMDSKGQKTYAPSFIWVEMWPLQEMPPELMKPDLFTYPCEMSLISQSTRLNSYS
The settings on record: construct G41A, ±s.e.m. In outline: (§1)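 HEK293T cells transfected with mutant RXFP1 and pCRE β-galactosidase reporter, stimulated with H2 relaxin in minimal media/1% DMSO. β-Galactosidase read with chlorophenol red-β-D-galactopyranoside at 570 nm; responses pooled from ≥3 triplicate experiments as % of 5 μM forskolin maximum.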

Another test deals with T3, RXFP1 N44A (Homo sapiens, UniProt Q9HBX9, N66A).
T3 construct: transiently transfected human embryonic kidney (HEK) 293T cells expressing full-length RXFP1 and mutants; expressed in transfected cells; host or cells: HEK293T
T3 sequence (Q9HBX9 23-757 N66A limits assumed): T2 sequence (Q9HBX9 23-757 G63A limits assumed) with A41G, N44A
The settings on record: construct N44A, ±s.e.m. In outline:
as §1

Setting [1] is: percentage of maximum response to 5 μM Forskolin.

Changes are numbered by the printed parent chain.

In the case of “H2 relaxin: two-chain 6-kDa peptide hormone structurally related to insulin; recombinant human gene-2 H2 relaxin provided by Corthera”, the “H2 relaxin pEC50” value in the test with RXFP1 (cAMP reporter) is 10.97±0.05 (6); with RXFP1 G41A (cAMP reporter) it was 11.13±0.1 (3); in the test with RXFP1 N44A (cAMP reporter), 11.0±0.1 (4). For the same substance, the “H2 relaxin Emax” value with RXFP1 (setting [1]) is listed as 116.3±4.2 (6) %; with RXFP1 G41A (setting [1]), 104.7±1.65 (3) %; in the test with RXFP1 N44A (setting [1]), 92.16±6.98 (4) %.
